Assay: label from the status in PepcDB records
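Further: failed if final PepcDB status was selected cloned or expressed and not failed if soluble or beyond.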

Row | Sequence | protein production
1 | MTAYTSWQTPHLFIFIQQDYILDSIPLSSLFITLIILLLLSAFFSSAETGLMSLNRYKIRHLTAQGHKGAKLAEKLLNKTDVLLSLILICNNLINIAASAIATMIGIRLAGDTGIAIATGILTLVMLVFSEILPKTIAVIYPEKISFLASYILTPLKKLLMPLVFLMNLIIKYLMKLMRIRQHEKSGLSIEELRSVVLEAGKFIPTAHQEMLISILDMEKVTVEDIMVPRNDIGGIDIEDDWKAIIRQLNHAAHGRVVLYKGNMDKNILGILRIREAFRLLLDKEEPSKKTLIRAVDEAYFIPEGTPLITQLMHFKTNKERLGLVVDEYGDIKGLVTLADILEEIVGEFTTSTAPTLAEEVKQQSDGSVIIEGSANLRDLNKLFNWHLPINEVRTFNGLILEHLEKIPIEGTQFRLNQLNITVLEVADNMVKKVKVELIE | failed
2 | MTDARTTVVVITHNRCAEVLRTLDRLAELPERPAVIVTDNGSTDGTAAAVARHHPGVRLLRSGRNLGAVGRNLAVRQVTTPYVAFCDDDSWWAPGSLSGAADLLDRYPAVGSVTARILVEPEGTEDPIVEELRDSPVPRPDWLPGPALGSFLAAATVLRTDAFRAAGGFHPRLWLGGEEELLAADLAANGWWLTYAGQLTIHHHPSGVRDSTVRRSHGIRNTLWFTWLRRPVGPALRRTLHLARTVPRDTASLRAFAEATAALPWVLRERRVLPPEVEARLRALEPAQRDSTARSYTGLEHHHHHH | failed
3 | MTDDRPPLPPFTRATAAQKVQAAEDAWNTRDPHKVSLAYSPDSVWRNRDTFVTGRAAIVELLTAKWAREREYALRKDLWAFDGNRIAVRFQYECQDADGQWWRSYGNELWEFDEHGLMTRREAGIHDVRIEERERRILGPRPEAERGRSFPVQ | failed
4 | MTDDVTNVEQPSTASEQQPQDVPAAEPSAAKKRRANKAKSKATAAAIEQRLGHSFADPSLLTTAFTHVSALKSARRTDSYQRLEFLGDHVLGLIVSDMLYRAFPDADEGELSKRLADLVRKETCADVARSLDLVEGIKLGTVGAGAGAKLRKSVLGDICEAVIGAIYLDGGYEAASDFVRRNWTERMRKPARSLRDPKTVLQEWAQARGLPTPVYREVERTGPHHDPQFRVAVILPGLEPAEGLGGSKRAAEKVAASAMLAREGVGTGGNDG | failed
5 | MTDEDSEANALADPDNPPLSAEQLASAPRMPRIKIIRRALKLTQEEFSARYHIPLGTLRDWEQGRSEPDQPARAYLKIIAVDPEGTAAALRKGAT | not failed
6 | MTDESDSTAHVSCIIPVYNDSVGIKNTLRSVVGQEYHGYDVYVVDNGSTDGSRRRVRNCAAESDDIQLLVEDEVQGSYAARKTGVQNAESDVLAFLDADETVDEDWLETALGAMQEQDVDYLGCNVELTCPEDTLVGRYNARTGFPVEEYLEDQNYAPTCALLVRRKVFEDVGPFDARLISGGDREFGDRVHDAGYEQGYAENATVYHPARTSLESLAKKNFRVGRGFCQKQRYYPERYGKPGIPPTPSGPSGGDDGDEPDASLTRLAFTLLSIAMLACRGVGYYYEFVVGEENDDIPAPTSLEHHHHHH | failed
7 | MTDKIFQEKVGPVALTIVPTQKYKSNKIVFKFRAPLERETVTKRSLLSILLETNSEKYPTQTAFRKQLANLYGANFYTTTAKKGNEHVLTVVFDMIDGQYVSDGENILKDAFAFIEQAIFQPNATNGAFDEEIVVREKENLKSSLEGIYDDKIRFASKRLVEEMFRDDEFRFGAAGVLEDVDAITAKDLYEYYLKFIKEDVIEIFICGDVTKEEVMPLIEKMAFSPRPERKGVFYTKEAPKETRVIHEQQAINQGKLVLGYQTETLFGDDDFVALQLANGLLGGFANSKIFINVREKASLAYYASSRIDSFKGYMIISAGIDEVNYKQALTIIEEQIVAMKQGDFTEDELNQTKEMLINQLLETNDQAQGLIELAYNNVLREANLDLENWIIKIKQATKQEVVAAINKIKPDTIYFLSKGGEELHGKNHI | failed
8 | MTDKKTTEKKETETAATFTEELTAVLEEIKEEPVKEKKKGEIVTIVNETDIQIGEREYRIVKNHRDAFDPERLGERFSEVLARYDYIVGDWGYEQLRLRGFFDTSNRRAAPDQRIDTLEDYLYEYCNFGCAYFVIERTGERKEKTTHRRRRHKKNNRSNAFVEEKSAPANKNSKPVIRTRKEENKKTTTPKQPSPKKSGKGFTIRQREELEHHHHHH | not failed
9 | MTDLSARDRLAPDSSPRLLALASIALEAGALARQSLRRRHVDQMVSKGPRDYQTEIDVAVERLIVAGVSEAFPDHAIQGEEETGNRTGGPDAPVIYIDPIDGTTNFAWGLPHFGMTIAIAEQGKITCGVVYDSMLDELFSAEIGKGATLNGEKLRCADVADVQNVLVGAGLPVPGQVKSVDEELYHRALRRLMDNTAGVRRLGSAALSIAYVACGRLDGFFEDGLQVHDYGAAALILTEAGGVVTGFGGMPVDAGGGILAASPALHPWLLAGFQPGMDR | failed
10 | MTDNKIKNEDGKLELIINAAQKRFAHYGLCKTTMNEIASDVGMGKASLYYYFPDKETLFEAVIKKEQNVFFDEMDKILNSGIDATALLKKYVKLRSLHFRHLLNLSKLRSDFFHNTKPVFAKAFESFKQKEVEIVAGIIQYGITTKEFKRGNKHENAEFLVHLLLGVRMVKLKYKEINDFDESDYEDLDKNMCKVAGMFLKEIQTEVASR | not failed
11 | MTDNLINNGTKTTPEAEILTAASNSRSSDAQHDDTAPAGEVLLDIDPDELLSDPAEKEETSAQDIALPDHVAGSGSLDRLIDQARDYAEAATAENTNKAYKADWKHFTGWCRRKGVDALVPSPAVIGLYISDCAKPQDGSPALSVSTIERRLSGLAANYRQRGLALDMKDRHIASVWAGIKRHHAKPPTQKEAVLIEDVLAMVGALSYSLRDLRDRAILLIGYAGGLRRTEIVGLDVGKDESDDGRGWVEILEGGAVLHIKGKTGWREVEIGRGSADQTCPVYALEQWLHYAKIDVGSVFRQVFRDNSRIGPERLSDKHVVRLIKRLVLETGVGLDRPALSKLSDEERAKFFAGHSLRAGLASGAEVDERYVQKQLGHASAEMTRRYQRRRDRFRVNLTKAVGL | failed
12 | MTDNNQNNENHENSSENSKADEMRAGAFERFTNRKKRFRENAQKNAEYSNHEASSHHKKEHRPNKKPNNHHKQKHAKTRNYAQEELDSNKVEGVTEILHVNERGTLGFHKELKKGVEANNKIQVEHLNPHYKMNLNSKASVKITPLGGLGEIGGNMMVIETPKSAIVIDAGMSFPKEGLFGVDILIPDFSYLHQIKDKIAGIIITHAHEDHIGATPYLFKELQFPLYGTPLSLGLIGSKFDEHGLKKYRSYFKIVEKRCPISVGEFIIEWIHITHSIIDSSALAIQTKAGTIIHTGDFKIDHTPVDNLPTDLYRLAHYGEKGVMLLLSDSTNSHKSGTTPSESTIAPAFDTLFKEAQGRVIMSTFSSNIHRVYQAIQYGIKYNRKIAVIGRSMEKNLDIARELGYIHLPYQSFIEANEVAKYPDNEILIVTTGSQGETMSALYRMATDEHRHISIKPNDLVIISAKAIPGNEASVSAVLNFLIKKEAKVAYQEFDNIHVSGHAAQEEQKLMLRLIKPKFFLPVHGEYNHVARHKQTAISCGVPEKNIYLMEDGDQVEVGPAFIKKVGTIKSGKSYVDNQSNLSIDTSIVQQREEVASAGVFVATIFVNKNKQALLESSQFSSLGLVGFKDEKPLIKEIQGGLEVLLKSSNAEILNNPKKLEDHTRNFIRKALFKKFRKYPAIICHAHSF | failed
13 | MTDNRKFEIVADTELPGTPERVWQAVTKDTPAWMFPTDQWPDVKTTEEYPSHLVSRMDGPDGWFNQLEHVLEPLEGGRAKLHYVHSGIFADNWDEQYDGASKHTEFYLHTLGQYLQHFDGKPVVFTDIQAPPSSQAPDGFVQLKQALGVDGLPTGTSVDVDIDGVGRLSAEVDFSNENFLGLRTADTMYRFFGRNVFGAPVGMTVHEFSGSGDSELTAKAWGAFLEKVYALEHHHHHH | failed
14 | MTDNRPCRKDLLDWINVVSFAVDDVKLFLDTHPCNKEAMEFFDEFKKQRVQALKEYAKYYGPLTLDTASTCTERWNWINEPWPWQEGGCLEHHHHHH | failed
15 | MTDPSSTLRLRGLLAEIVAAPLTRTVALLALCSAYIQGPLTKIFDFPGAIAEMNHFGLQPAAAFAVFVIIFELTASAMVVTGVLRWVGALALSGFTLLATFIALRFWEMAPGMDRMMATNAFFEHLGLAGAFVIVAAIDLTKGTGK | not failed
16 | MTDRIMALVDGSGFSRSVCLHAAWLAQRLELPVDLLHVLGRREAADRGDLSGALQLGARTALLEELAALDAERARLAQAQGRAILEDAQAILAAESVETTPHLRQGDLIDTVAGFERSGRALVVGKRGRAAGFASAHLGSNLERLLRASKLPVLIVPADCR | failed
17 | MTDYFHLHFNKGEFNAENLFIELKGNFAVYGSRWYFGESIETLKGTARTLDKADGAISLEDGIISRNGIALLDDSQGFIWDEQSGYIERENQIDLYFFAYGHDYRGAIRDFYHLTGSTPLLPRYALGNWWSRYWPYTSDEYLDLIDRFETEKIPLSIGVLDMDWHITDIPARFGSGWTGYSWNRNLIPNPEQLLQQLHDRKLKLSLNVHPADGIRAYEEAYPQIAKRLGLNVELEEPAIFDFFNPSFREAYFKDVHYELEKQGVDFWWIDWQQGTQGMLDPLWLLNHYHYQDSCKNAEGGLILSRYAGPGSHRYPVGFSGDTIISWNSLRFQPYFTATASNIGYSWWSHDIGGHMLGDYDEELQTRWLQFGVFSPITRLHSSRSPFNSKEPWFFSETTSKIMKKYLRLRHQMIPYLYTMNVQTHEEGAPLISPIYYFYPENDESYNVPNQYFFGTELMVAPIVEKMDLTFQSAKVDVWFPEGEWYDFFSEKKYTGGVKLSVYRDISTTPVFAKSGAIIPLVGSEIGMGVDLPEVVDWYVFPGKQHSFEMLEDQNGQRYKTRLSIDWEMGMVELALQGDSSIVPSNRKHRIHFKGTNVSIIELPNKNDTAKFEWKDNKRTSLNDEVFRLLKTASLPYELKDRLLNQFINAKNSHDLMNILHHQDKELRGRLLEMIFTSQNLEHHHHHH | failed
18 | MTDYVNYNQERWNRVSARQGNAYTVPLSHEEFLVAKDKPLSVSLTVGKTVPLDWFEKAKGKKLLGLACGGGQQGPISAAHSYETTILDFSKEQLDKDRLVAERENLDLQTVQADMTQAFPFEDESFDIIFCPVSNIYIEDLANMWQESYRVLKKGGLLMVGYMNPWIYVFDADDVWEHPDKTLVPKYSLPFNARQLEEAGQITIDPEYGYEFSHTLEEQIAGQLRAGFAMIDFYESKDSRNRLTQFASDYLANLSMKW | failed
19 | MTEARAGLFARRRYLPALAVLYAALWLALAIEPHDRSDWLLENALVLGFGVALYATRRWFVFSRVSYTLIFLYLCLHAVGAHYTYSLVPYDAWWQRLTGHSLDQLLGWERNQFDRLVHFSYGLLLAYPIREIFLRVVDVRGFWGYLLPLDVALSTSALYELIEWGAAEFFGGELGVAYLGTQGDIWDAQKDMALAGLGALIAMLLTALFNRGARRDPARDWVDRMKPGHT | failed
20 | MTEASAPLIDVDPRLLEVLVCPVTRGPLEYDRAKGELISRAAKLAYPIRDGVPIMLPEEARELEGLEHHHHHH | not failed
21 | MTEDQVEILEYNFNKVNKHPDPTTLCLIAAEAGLTEEQTQKWFKQRLAEWRRSEGLPSECRSVTD | not failed
22 | MTEDRLSAEDKKFLEVERALKEAALNPLRHATEELFGDFLKMENITEICYNGNKVVWVLKNNGEWQPFDVRDRKAFSLSRLMHFARCCASFKKKTIDNYENPILSSNLANGERVQIVLSPVTVNDETISISIRIPSKTTYPHSFFEEQGFYNLLDNKEQAISAIKDGIAIGKNVIVCGGTGSGKTTYIKSIMEFIPKEERIISIEDTEEIVFKHHKNYTQLFFGGNITSADCLKSCLRMRPDRIILGELRSSEAYDFYNVLCSGHKGTLTTLHAGSSEEAFIRLANMSSSNSAARNIKFESLIEGFKDLIDMIVHINHHKQCDEFYIKHR | not failed
23 | MTEEHVVLLDEQDKPSGTLEKYAAHTLNTPLHLAFSCWLFNEDGQLLVTRRSLSKKAWPGVWTNSVCGHPQQGETTEEAIIRRCRFELGVEITDLTPVYPHFSYRATDPNGIVENEVCPVFAARATSVLQVNSEEVMDYQWSEFKSVWKSLLATPWAFSPWMVMQASDEQARERLLNYCQR | not failed

Reference: a protein production outcome set (Wang et al. 2014)
